Experimental data published in the supplement of paper PMC9112550, “Optimization of the antimicrobial peptide Bac7 by deep mutational scanning” (BMC Biology, 2022).

Test system: Escherichia coli TOP10
Assay: shrunken log2 fold change of peptide-encoding DNA abundance (4.5 h post-induction vs induction); higher = less antimicrobial activity (less host growth inhibition)
Conditions: time post-induction: 4.5 h; library: site-saturation at positions 5, 18, 19, 20
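Further: peptides expressed intracellularly from a pBAD plasmid library in pooled LB shake-flask culture, induced with 0.3% L-arabinose, DNA abundance read by NGS, three biological replicates, DESeq2 with apeglm shrinkage.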

Sequence	shrunken log2 fold change
RRIRCRPPRLPRPRPRPWPWPRP	0.0405
RRIRPRPPRLPRPRPRPKSKPRP	-0.255
RRIRERPPRLPRPRPRPPSIPRP	-0.0171
RRIRYRPPRLPRPRPRPLILPRP	-0.767
RRIRNRPPRLPRPRPRPFCDPRP	-0.133
RRIRSRPPRLPRPRPRPFPGPRP	0.0161
RRIRYRPPRLPRPRPRPYGWPRP	-0.187
RRIRKRPPRLPRPRPRPYLGPRP	-0.0981
RRIRERPPRLPRPRPRPHNEPRP	-0.438
RRIRYRPPRLPRPRPRPPWWPRP	0.605
RRIRPRPPRLPRPRPRPTYNPRP	-0.664
RRIRCRPPRLPRPRPRPKFCPRP	-0.0358
RRIRFRPPRLPRPRPRPRNRPRP	-0.182
RRIRLRPPRLPRPRPRPHCSPRP	-0.747
RRIRARPPRLPRPRPRPREWPRP	-0.0253
RRIRARPPRLPRPRPRPDYGPRP	-0.679
RRIRMRPPRLPRPRPRPYMSPRP	-0.00176
RRIRERPPRLPRPRPRPKPGPRP	0.469
RRIRLRPPRLPRPRPRPSHKPRP	-0.354
RRIRTRPPRLPRPRPRPYQCPRP	-0.0724

Sequence	shrunken log2 fold change
RRIRKRPPRLPRPRPRPTMWPRP	0.643
RRIRDRPPRLPRPRPRPNPMPRP	-0.0935
RRIRARPPRLPRPRPRPTMTPRP	0.9
RRIRKRPPRLPRPRPRPFKMPRP	-0.231
RRIRVRPPRLPRPRPRPRSKPRP	-0.108
RRIRTRPPRLPRPRPRPPTIPRP	-0.248
RRIRWRPPRLPRPRPRPNATPRP	0.736
RRIRVRPPRLPRPRPRPDCRPRP	-0.0921
RRIRVRPPRLPRPRPRPRMVPRP	-0.0168
RRIRHRPPRLPRPRPRPAPKPRP	-0.164
RRIRTRPPRLPRPRPRPADYPRP	-0.226
RRIRGRPPRLPRPRPRPSIPPRP	-0.137
RRIRMRPPRLPRPRPRPQEEPRP	-0.0207
RRIRMRPPRLPRPRPRPFSPPRP	-0.189
RRIRERPPRLPRPRPRPTHFPRP	-0.382
RRIRMRPPRLPRPRPRPDFDPRP	0.15
RRIRYRPPRLPRPRPRPRHLPRP	-0.142
RRIRFRPPRLPRPRPRPKVTPRP	-0.2
RRIRMRPPRLPRPRPRPIRAPRP	0.3
RRIRWRPPRLPRPRPRPYCKPRP	-0.864
